Data on four molecules can be found in patent publication US20140087995A1 (published 2014).

Numbered stars: 1 amine (or outer) side, 2 acyl side, 3 side chain; on linkers, the order of the positions; unused ones are H or OH. Bridge positions count the residues as written; N and C are the ends. Side chains are listed from the residue outwards. Ends that are not written are not given here. * marks the point of attachment. C20 diacid = O=C(O)CCCCCCCCCCCCCCCCCCC(=O)*; γGlu = O=C(O)[C@H](CCC(=O)[*:2])N[*:1]; AEEA = NCCOCCOCC(=O)O

A word on the IC50: it is the midpoint of a concentration-inhibition curve.

The labels stand for the following.
B1: N^ε1-[2-[2-[2-[[(4S)-4-carboxy-4-(19-carboxynonadecanoylamino)butanoyl]amino]ethoxy]ethoxy]acetyl]-[Lys14,Arg17,Pro21,Pro27,Pro31]-h-amylin (peptide)
peptide: K([AEEA-γGlu-C20 diacid])CNTATCATQRLAKFLRHSSPNFGAIPSSTPVGSNTY-NH2
modifications: disulfide 2-7; N-terminus assumed
SMILES: CC[C@H](C)[C@H](NC(=O)[C@H](C)NC(=O)CNC(=O)[C@H](Cc1ccccc1)NC(=O)[C@H](CC(N)=O)NC(=O)[C@@H]1CCCN1C(=O)[C@H](CO)NC(=O)[C@H](CO)NC(=O)[C@H](Cc1c[nH]cn1)NC(=O)[C@H](CCCNC(=N)N)NC(=O)[C@H](CC(C)C)NC(=O)[C@H](Cc1ccccc1)NC(=O)[C@H](CCCCN)NC(=O)[C@H](C)NC(=O)[C@H](CC(C)C)NC(=O)[C@H](CCCNC(=N)N)NC(=O)[C@H](CCC(N)=O)NC(=O)[C@@H](NC(=O)[C@H](C)NC(=O)[C@@H]1CSSC[C@H](NC(=O)[C@@H](N)CCCCNC(=O)COCCOCCNC(=O)CC[C@H](NC(=O)CCCCCCCCCCCCCCCCCCC(=O)O)C(=O)O)C(=O)N[C@@H](CC(N)=O)C(=O)N[C@@H]([C@@H](C)O)C(=O)N[C@@H](C)C(=O)N[C@@H]([C@@H](C)O)C(=O)N1)[C@@H](C)O)C(=O)N1CCC[C@H]1C(=O)N[C@@H](CO)C(=O)N[C@@H](CO)C(=O)N[C@H](C(=O)N1CCC[C@H]1C(=O)N[C@H](C(=O)NCC(=O)N[C@@H](CO)C(=O)N[C@@H](CC(N)=O)C(=O)N[C@H](C(=O)N[C@@H](Cc1ccc(O)cc1)C(N)=O)[C@@H](C)O)C(C)C)[C@@H](C)O
notes: Analogue of human amylin; also called compound 74
B2: N^ε1-[(4S)-4-carboxy-4-(19-carboxynonadecanoylamino)butanoyl]-[Arg14,Arg17,Pro21,Pro27,Pro31]-h-amylin (peptide)
peptide: K([γGlu-C20 diacid])CNTATCATQRLARFLRHSSPNFGAIPSSTPVGSNTY-NH2
modifications: disulfide 2-7; N-terminus assumed
SMILES: CC[C@H](C)[C@H](NC(=O)[C@H](C)NC(=O)CNC(=O)[C@H](Cc1ccccc1)NC(=O)[C@H](CC(N)=O)NC(=O)[C@@H]1CCCN1C(=O)[C@H](CO)NC(=O)[C@H](CO)NC(=O)[C@H](Cc1c[nH]cn1)NC(=O)[C@H](CCCNC(=N)N)NC(=O)[C@H](CC(C)C)NC(=O)[C@H](Cc1ccccc1)NC(=O)[C@H](CCCNC(=N)N)NC(=O)[C@H](C)NC(=O)[C@H](CC(C)C)NC(=O)[C@H](CCCNC(=N)N)NC(=O)[C@H](CCC(N)=O)NC(=O)[C@@H](NC(=O)[C@H](C)NC(=O)[C@@H]1CSSC[C@H](NC(=O)[C@@H](N)CCCCNC(=O)CC[C@H](NC(=O)CCCCCCCCCCCCCCCCCCC(=O)O)C(=O)O)C(=O)N[C@@H](CC(N)=O)C(=O)N[C@@H]([C@@H](C)O)C(=O)N[C@@H](C)C(=O)N[C@@H]([C@@H](C)O)C(=O)N1)[C@@H](C)O)C(=O)N1CCC[C@H]1C(=O)N[C@@H](CO)C(=O)N[C@@H](CO)C(=O)N[C@H](C(=O)N1CCC[C@H]1C(=O)N[C@H](C(=O)NCC(=O)N[C@@H](CO)C(=O)N[C@@H](CC(N)=O)C(=O)N[C@H](C(=O)N[C@@H](Cc1ccc(O)cc1)C(N)=O)[C@@H](C)O)C(C)C)[C@@H](C)O
notes: Analogue of human amylin; also called compound 63
B3: N^ε1-[2-[2-[2-[[(4S)-4-carboxy-4-(19-carboxynonadecanoylamino)butanoyl]amino]ethoxy]ethoxy]acetyl]-[Thr14,Arg17,Pro21,Pro27,Pro31]-h-amylin (peptide)
peptide: K([AEEA-γGlu-C20 diacid])CNTATCATQRLATFLRHSSPNFGAIPSSTPVGSNTY-NH2
modifications: disulfide 2-7; N-terminus assumed
SMILES: CC[C@H](C)[C@H](NC(=O)[C@H](C)NC(=O)CNC(=O)[C@H](Cc1ccccc1)NC(=O)[C@H](CC(N)=O)NC(=O)[C@@H]1CCCN1C(=O)[C@H](CO)NC(=O)[C@H](CO)NC(=O)[C@H](Cc1c[nH]cn1)NC(=O)[C@H](CCCNC(=N)N)NC(=O)[C@H](CC(C)C)NC(=O)[C@H](Cc1ccccc1)NC(=O)[C@@H](NC(=O)[C@H](C)NC(=O)[C@H](CC(C)C)NC(=O)[C@H](CCCNC(=N)N)NC(=O)[C@H](CCC(N)=O)NC(=O)[C@@H](NC(=O)[C@H](C)NC(=O)[C@@H]1CSSC[C@H](NC(=O)[C@@H](N)CCCCNC(=O)COCCOCCNC(=O)CC[C@H](NC(=O)CCCCCCCCCCCCCCCCCCC(=O)O)C(=O)O)C(=O)N[C@@H](CC(N)=O)C(=O)N[C@@H]([C@@H](C)O)C(=O)N[C@@H](C)C(=O)N[C@@H]([C@@H](C)O)C(=O)N1)[C@@H](C)O)[C@@H](C)O)C(=O)N1CCC[C@H]1C(=O)N[C@@H](CO)C(=O)N[C@@H](CO)C(=O)N[C@H](C(=O)N1CCC[C@H]1C(=O)N[C@H](C(=O)NCC(=O)N[C@@H](CO)C(=O)N[C@@H](CC(N)=O)C(=O)N[C@H](C(=O)N[C@@H](Cc1ccc(O)cc1)C(N)=O)[C@@H](C)O)C(C)C)[C@@H](C)O
notes: Analogue of human amylin; also called compound 75
B4: N^ε1-[2-[2-[2-[[(4S)-4-carboxy-4-(19-carboxynonadecanoylamino)butanoyl]amino]ethoxy]ethoxy]acetyl]-[Ser14,Arg17,Pro21,Pro27,Pro31]-h-amylin (peptide)
peptide: K([AEEA-γGlu-C20 diacid])CNTATCATQRLASFLRHSSPNFGAIPSSTPVGSNTY-NH2
modifications: disulfide 2-7; N-terminus assumed
SMILES: CC[C@H](C)[C@H](NC(=O)[C@H](C)NC(=O)CNC(=O)[C@H](Cc1ccccc1)NC(=O)[C@H](CC(N)=O)NC(=O)[C@@H]1CCCN1C(=O)[C@H](CO)NC(=O)[C@H](CO)NC(=O)[C@H](Cc1c[nH]cn1)NC(=O)[C@H](CCCNC(=N)N)NC(=O)[C@H](CC(C)C)NC(=O)[C@H](Cc1ccccc1)NC(=O)[C@H](CO)NC(=O)[C@H](C)NC(=O)[C@H](CC(C)C)NC(=O)[C@H](CCCNC(=N)N)NC(=O)[C@H](CCC(N)=O)NC(=O)[C@@H](NC(=O)[C@H](C)NC(=O)[C@@H]1CSSC[C@H](NC(=O)[C@@H](N)CCCCNC(=O)COCCOCCNC(=O)CC[C@H](NC(=O)CCCCCCCCCCCCCCCCCCC(=O)O)C(=O)O)C(=O)N[C@@H](CC(N)=O)C(=O)N[C@@H]([C@@H](C)O)C(=O)N[C@@H](C)C(=O)N[C@@H]([C@@H](C)O)C(=O)N1)[C@@H](C)O)C(=O)N1CCC[C@H]1C(=O)N[C@@H](CO)C(=O)N[C@@H](CO)C(=O)N[C@H](C(=O)N1CCC[C@H]1C(=O)N[C@H](C(=O)NCC(=O)N[C@@H](CO)C(=O)N[C@@H](CC(N)=O)C(=O)N[C@H](C(=O)N[C@@H](Cc1ccc(O)cc1)C(N)=O)[C@@H](C)O)C(C)C)[C@@H](C)O
notes: Analogue of human amylin; also called compound 73

The target of one experiment is T1, rat calcitonin receptor (rat, UniProt P32214 25-516).
T1 construct: whole, on cells; Used as membranes prepared from BHK tk'ts 13 cells transiently transfected with the rat calcitonin receptor (Assay VIII); also called rCTR; rat calcitonin (a) receptor
T1 sequence (looked up): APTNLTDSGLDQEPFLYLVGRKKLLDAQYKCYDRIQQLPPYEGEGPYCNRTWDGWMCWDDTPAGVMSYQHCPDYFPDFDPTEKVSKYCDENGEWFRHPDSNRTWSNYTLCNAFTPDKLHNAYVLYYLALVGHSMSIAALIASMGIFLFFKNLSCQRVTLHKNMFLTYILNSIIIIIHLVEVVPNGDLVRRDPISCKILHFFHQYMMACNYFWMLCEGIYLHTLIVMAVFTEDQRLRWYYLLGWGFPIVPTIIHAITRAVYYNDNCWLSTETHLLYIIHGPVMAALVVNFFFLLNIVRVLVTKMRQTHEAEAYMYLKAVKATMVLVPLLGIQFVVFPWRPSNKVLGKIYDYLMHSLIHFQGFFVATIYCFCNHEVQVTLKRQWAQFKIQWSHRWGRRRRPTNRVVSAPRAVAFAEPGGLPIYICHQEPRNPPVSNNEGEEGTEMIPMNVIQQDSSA
Nature of the experiment: SPA competition with 125I-calcitonin, membranes of BHK cells with rat CTR (Assay VIII).
On to B1, for which the IC50 stood at 109 nM.
Still for that read-out and setting: next, B2: 124 nM; B3: 442 nM; B4: 50.3 nM.

For a further experiment, the target named is T1, rat calcitonin receptor. Kind of experiment: IC50 on rat CTR divided by IC50 on rat amylin receptor (Assays VIII/VI).
On to B1, for which the “Ratio rCT/rAmylin binding” value is 22.3.
As for B2, the “Ratio rCT/rAmylin binding” value is 35.6.
The same measure, in the same setting: next, B3: 110.
The same measure, in the same setting: the figure for B4 is 178.

Another experiment addresses T2, human calcitonin receptor (human, UniProt P30988 25-474).
T2 construct: whole, on cells; Used as membranes prepared from a BHK tk'ts 13 cell line stably transfected with the human calcitonin receptor (Assay VII); also called hCTR; hCT
T2 sequence (looked up): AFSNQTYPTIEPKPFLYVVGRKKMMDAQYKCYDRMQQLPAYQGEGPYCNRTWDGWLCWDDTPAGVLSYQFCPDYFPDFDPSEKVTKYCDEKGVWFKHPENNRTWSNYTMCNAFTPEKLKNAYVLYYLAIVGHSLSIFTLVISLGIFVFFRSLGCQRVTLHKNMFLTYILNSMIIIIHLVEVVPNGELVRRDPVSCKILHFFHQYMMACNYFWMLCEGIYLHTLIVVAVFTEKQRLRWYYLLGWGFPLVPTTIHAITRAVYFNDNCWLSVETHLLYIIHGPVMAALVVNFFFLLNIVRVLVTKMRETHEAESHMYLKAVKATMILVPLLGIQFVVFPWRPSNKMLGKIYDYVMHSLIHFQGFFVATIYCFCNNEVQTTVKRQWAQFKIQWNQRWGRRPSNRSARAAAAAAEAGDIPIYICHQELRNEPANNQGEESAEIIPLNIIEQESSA
Kind of experiment: IC50 on human CTR divided by IC50 on human amylin receptor (Assays VII/V). In a few lines:
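Competition binding by SPA with cell membranes (35 ng/μL) and SPA beads in 50 mM Hepes pH 7.4 with 1 mM CaCl2, 5 mM MgCl2, 0.1% OA and 0.02% Tween20. Incubated 120 min at 25 °C with shaking, then counted.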
Take B1: the “Ratio hCT/hAmylin binding” value is 101.
On the same count and under the same terms, next, B2: 157; B3: 91.4; B4: 51.7.

In another experiment the target is T3, rat amylin receptor (rat calcitonin receptor + rat RAMP 3) (rat, UniProt P32214 25-516; Q9JJ73 23-147).
T3 construct: whole, on cells; Used as membranes prepared from BHK tk'ts 13 cells transiently transfected with rat calcitonin receptor and rat RAMP 3 (Assay VI); also called rAmylin-R; rat amylin 3(a) receptor
T3 sequence (looked up) 1: T1 sequence (looked up)
T3 sequence (looked up) 2: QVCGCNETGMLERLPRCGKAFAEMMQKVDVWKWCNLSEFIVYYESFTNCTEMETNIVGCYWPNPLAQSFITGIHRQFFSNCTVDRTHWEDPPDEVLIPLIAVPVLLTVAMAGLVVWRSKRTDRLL
Kind of experiment: SPA competition with 125I-rat amylin, membranes of BHK cells with rat CTR + rat RAMP3 (Assay VI).
Regarding B1, the IC50 is 4.89 nM.
The same measure, in the same setting: next, B2: 3.48 nM; B3: 4.03 nM; B4: 0.283 nM.
